Source: IntAct's records for PubMed 23395900

B1: Protein RAD61 (Saccharomyces cerevisiae), Q99359 (parent)
chain: MRAYGKRGPVLRTPFRSNKGLPSSSDVEFSDDDVNSVIPDVSSTISSSIADHPIEGLLDEPRKAQDSSSSFDGANEKPSSQLDSKRNDQNVKIITSSDTSMAFMKDEKLSAFNFLDGSKASKRKRRRTYQKHDANITSSIEPDVQDEDSITMHNEFESIRKIYNDINEFILKLPRADDDILNKMLENEMKMDDSIENNSIRTSKDKKYGKFRTILINKNKENEIMGEEVDQKANTLSLNNADNSNAEKEGLTSTNHYNELKNMGDTIKYQDDIEFLLSNSKSNDNTTVPINEYFKKLLNLSLMIINDEEFFQYAKRYFKKEIIKLSFAQFRSDFPELILLQGYLLHKVSESQSDFPPSFDNFSIELSKDDGKIRTKKNKHIKKLSHLNFEDFLRKTQFKTGLYYSLSLWEMHGNLSLDIIKRISILASNKDLFSRHVKTFIPLLEKLITASEFCHMYIEQPEMFDSLISNLNNQFKDMLDDDSLIKILILLTNMEVHNYTLWKEADMIFQSSMNTILESIHPLTDAKVDNILLHLGLCLNICSRENSRLKLDGKLWYDMKTIFVKMIRDGSDTENRLVQGLFYLNFSFLIKQRKENSNLDPGELNLLLVELEAFKSETSQFNEGISNKIEIALNYLKSIYTSERITI
partner: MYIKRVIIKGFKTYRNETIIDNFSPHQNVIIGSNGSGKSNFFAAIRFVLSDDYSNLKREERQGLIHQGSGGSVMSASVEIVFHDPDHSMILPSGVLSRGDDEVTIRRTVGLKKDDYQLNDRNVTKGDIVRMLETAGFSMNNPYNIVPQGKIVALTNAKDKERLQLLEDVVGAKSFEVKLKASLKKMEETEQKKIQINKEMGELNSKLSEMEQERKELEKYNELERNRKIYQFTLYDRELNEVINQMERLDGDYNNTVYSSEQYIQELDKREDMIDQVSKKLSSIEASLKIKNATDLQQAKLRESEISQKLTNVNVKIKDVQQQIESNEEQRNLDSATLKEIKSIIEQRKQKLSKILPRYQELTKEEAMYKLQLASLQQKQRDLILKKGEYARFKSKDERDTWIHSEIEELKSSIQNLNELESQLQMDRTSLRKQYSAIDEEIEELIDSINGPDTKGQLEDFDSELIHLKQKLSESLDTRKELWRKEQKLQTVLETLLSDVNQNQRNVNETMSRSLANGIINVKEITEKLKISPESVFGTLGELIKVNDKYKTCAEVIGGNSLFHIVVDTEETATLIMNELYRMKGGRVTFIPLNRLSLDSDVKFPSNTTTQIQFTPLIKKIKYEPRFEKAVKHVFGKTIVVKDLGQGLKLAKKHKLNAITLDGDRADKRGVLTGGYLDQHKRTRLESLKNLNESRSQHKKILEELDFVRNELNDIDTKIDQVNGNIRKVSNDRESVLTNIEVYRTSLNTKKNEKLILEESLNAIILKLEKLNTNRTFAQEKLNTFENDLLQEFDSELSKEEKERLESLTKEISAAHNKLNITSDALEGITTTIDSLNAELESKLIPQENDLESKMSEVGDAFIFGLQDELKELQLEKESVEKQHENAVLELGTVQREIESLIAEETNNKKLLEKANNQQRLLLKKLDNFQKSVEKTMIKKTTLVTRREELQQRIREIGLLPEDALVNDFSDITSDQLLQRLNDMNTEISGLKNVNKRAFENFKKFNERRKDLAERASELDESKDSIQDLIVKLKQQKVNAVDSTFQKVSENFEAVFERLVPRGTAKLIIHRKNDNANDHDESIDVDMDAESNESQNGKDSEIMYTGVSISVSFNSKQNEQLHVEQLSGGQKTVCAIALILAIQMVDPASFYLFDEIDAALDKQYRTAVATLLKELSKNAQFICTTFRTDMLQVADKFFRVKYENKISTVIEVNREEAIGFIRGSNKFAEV
B2: Structural maintenance of chromosomes protein 3 (Saccharomyces cerevisiae), P47037 (parent)
chain: B1 partner
partner: B1 chain

Variants of: B1
Conditions: with smc3_yeast SMC3, P47037

effect of a mutation on the interaction	Variant
decreasing interaction	N493A;L577R;N622A

Variants of: B1
Conditions: with smc3_yeast SMC3, P47037
Remark: another data set of the same source

effect of a mutation on the interaction	Variant
decreasing interaction	K376Q;K377Q;K382Q;K383Q

Variants of: B1
Conditions: with smc3_yeast SMC3, P47037
Remark: another data set of the same source

effect of a mutation on the interaction	Variant
decreasing interaction	N493A;L532E;N622A

Variants of: B1
Conditions: with smc3_yeast SMC3, P47037
Remark: another data set of the same source

effect of a mutation on the interaction	Variant
decreasing interaction	D271A;D272A

Variants of: B1
Conditions: with smc3_yeast SMC3, P47037
Remark: another data set of the same source

effect of a mutation on the interaction	Variant
decreasing interaction	N493A;N622A

Variants of: B2
Conditions: with rad61_yeast RAD61, Q99359

effect of a mutation on the interaction	Variant
decreasing interaction	L163A;L166A;D168A

Variants of: B2
Conditions: with rad61_yeast RAD61, Q99359
Remark: another data set of the same source

effect of a mutation on the interaction	Variant
decreasing interaction	L163D;L166D

Variants of: B2
Conditions: with rad61_yeast RAD61, Q99359
Remark: another data set of the same source

effect of a mutation on the interaction	Variant
decreasing interaction	K112N;K113N
